Data on 22 sequences can be found in the DeepSol protein solubility set.

The nature of this data set: soluble on expression in E. coli; label from the status in PepcDB or PDB records.
Regarding “MDSSFTPIEQMLKFRASRHEDFPYQEILLTRLCMHMQSKLLENRNKMLKAQGINETLFMALITLESQENHSIQPSELSCALGSSRTNATRIADELEKRGWIERRESDNDRRCLHLQLTEKGHEFLREVLPPQHNCLHQLWSALSTTEKDQLEQITRKLLSRLDQMEQDGVVLEAMS”, the “soluble on expression in E. coli” value was “not soluble”. To “MDTFRVFSLFAGISINNSHLLEFAVKAGREVMELNEHRATLFNKNVPSRGVKRVTAITNREREAVLRIEFPNVDVTDIDFDLFQARESTDKPLDVAAAIAYRLLLGSGLPQKFGCSDEVLLNFILQCRKKYRNVPYHNFYHVVDVCQTIYTFLYRGNVYEKLTELECFVLLITALVHDLDHMGLNNSFYLKTESPLGILSSASGNKSVLEVHHCNLAVEILSDPESDVFGGLEGAERTLAFRSMIDCVLATDMARHSEFLEKYLEIMKTSYNVDDSDHRQMTMDVLMKAGDISNVTKPFDVSRQWAMAVTEEFYRQGDMEKERGVEVLPMFDRSKNMELAKGQIGFIDFVAAPFFQKIVDACLQGMQWTVDRTKSNRAQWERVLEARSTG” belongs “not soluble”. Turning to “MDTIDLGNNESLVYGVFPNQDGTFTAMTYTKSKTFKTENGARRWLERNSGE”, the “soluble on expression in E. coli” value is given as “soluble”. In the case of “MDTNITWHTASVSKDERRVKNGHHSFVIWFTGLSASGKSTVANAVARKLFEKNIGNYVLDGDNIRHGLNKDLGFSESDRMENIRRIGEVAKLFVDQGAVVLTAFISPFRVDRKQVRDLLAVDEFIEVFVKCPIEECEKRDPKGLYKKARKGDIKEFTGIDSPYEEPEKAELIVETHKYSIEECAEQIVKYLQERSLI”, the “soluble on expression in E. coli” value was “not soluble”.

As to “MDTQQIDVMVADASHEVYVDTILETIRNAAAVRGTGIAERTHEYVATKMKEGKAIIALCGDTFAGFTYIESWGNKQYVATSGLIVHPDFRGLGLAKRIKQASFQLARLRWPKAKIFSLTSGAAVMKMNTELGYVPVTFNELTDDEAFWKGCEGCTNHDILAAKNRKFCICTAMLYDPTDPRNIKKEQERNNI”, the “soluble on expression in E. coli” value is on record as “not soluble”. As to “MDTSDHKPLIDRFETEFAEKSSLLRKEESELKRPDLRGDFLCLSCGQNFKHGASLNRHRKLVHSDEYTCMLCARKLYLKETVRDHMRNEHYLGQVYTCGCCNWTFSNKKALTEHAKAIQETGAPGDANPIAKSGNSPGSLLKSPIQRAGFKLNRLLNKSLSPSTSNSTTSSSSRDASGSPQPELELKLEPEPEPEPNEEALEYKRFFNNAVDTILQRNFFTDQQITEVDTWVIIIESANALATALQSYKKAQQIQPAEPAMIPEKRIKPEIE”, the “soluble on expression in E. coli” value was “soluble”. With “MDTTNQSEDIKPCDSDLMESILMFDEPISDILAHNKLWISHARTRSNFFPQEGRHISNQHTEAATSLKMWMLSKNLVVIVKRKDDIFPCKILTRNPENLFVARFLESGKEKHIQVEYSDIIMTRSELEKALPLCQHLIPARNWDDFYIIRDFEKATPYFEQGLSALVKPGQQFELQLEDAPDFYVMATVVKNYRGFLLVEYQNVSCVQKKTMPVFLFHFLMLFQFKRWIHMLSPYCHEIGWGKNEKQEYLKRGPYNRHMNVDLVAGLVKQSTNQKLGAVPEIVFRNNCPVPHRIPEYSACVYLDLDQKRFYFAHKVTTKTCRNNRHFFNISIGKNLVTSKQNNRPYEFHVYHPRILPYSVAKRMEVQIILPPDVKLLPDESNLDGYLRTYCNPCDKHKTSDRVQPSPKIAKKKNGPLLLDDTPDAMFRSRPLLGDNIGAHKEWTNFMNHIPDYKRKDLLKSMDTLKFCEIFRPTPTGALQLTAAEVTGQQECMLRLKVSGEDEPVYIHNADPHLYHLGACLDMELAINFHGEFFDEKPLKKNKNANNGFSSF” the entry was “not soluble”; with “MDVFNRNAERYDAWYDRNRELYEAELELLPKPISPSVEVGVGTGRFAVIGIDLGVDVSLQMLRIAKKRGVECVAGDAAHLPFKDKSFRSAYLIFTLCFLDEPIKALMEIKRVLEGTLVACVVPANSGLGREYSGKDSSFYRKARFLTEDEVLSMLRETGFKVKEIRRRKLKYDENDFVCFIAES”, “not soluble”. Turning to “MDVLPGRPRARRRRRRRQSRANILAIGVHLPRLRLSRGAMANALGWLSGGAGAGKGSRTLAYWDEDSVTMAVAAARHALARQAAPAIDALQFASTTPPFAEPQNAAFVRAALRLPATTLTQDVHGTPRAGLLALHMALESGTRTLVAAADLPTALPGSTAEARAGDGGAAVLTGDEPGLLRYLGGASLSAPFTDRYRAAGHDYPQEWEERWLREAGYLELVHDAIGRALQAASLRPEQVDHFVLPCPVPGVAAAVAAKAGLGQARLASALAENCGDTGAAHAFVMLGRALEDAAPGQKVLVAQFGQGATALLFEADEAVAGLAAPVSPALRDGLAEDNYMKLLAFRGRIAWDRGLRGRFLVNEALSTAWRNADALLDFVGGRCRETGQVQFPPTRLAATGGFHLDTQEPWPLADRGGRIATFTADLLAFSPCPPNCYGLVDIDGGGRVLMEFTDPQASQLEAGAAVAFALRIKDLDPQTGYRRYFWKALAAPTAD”, the “soluble on expression in E. coli” value is “not soluble”.

On to “MDWLLTPGPVRLHPKALEALARPQLHHRTEAAREVFLKARGLLREAFRTEGEVLILTGSGTLAMEALVKNLFAPGERVLVPVYGKFSERFYEIALEAGLVVERLDYPYGDTPRPEDVAKEGYAGLLLVHSETSTGALADLPALARAFKEKNPEGLVGADMVTSLLVGEVALEAMGVDAAASGSQKGLMCPPGLGFVALSPRALERLKPRGYYLDLARELKAQKEGESAWTPAINLVLAVAAVLEEVLPRLEEHLALKAWQNALLYGVGEEGGLRPVPKRFSPAVAAFYLPEGVPYARVKEAFAQRGAVIAGGQGPLKGKVFRLSLMGAYDRYEALGVAGMFREVLEEILPAS”, for which the “soluble on expression in E. coli” value was “soluble”. With “MDYFDRCYIINLPERRDRRREMEKELERAGMPPMPGRVEFFPAIRPESAGPFPSIGAHGCFLSHLGILRAAKAQGLRNVLILEDDLTFAAQFPEVEEKLVGELRETPWDFAFFGHVLEFPEVPPDRAHLEPYAGPIVTAHFYAVNGAVIDRLLGFLDALLQRPPGHPDGGPMHVDGAYSTFRQQNPDVVTLVAVPSQGWQRSSRSDIAPNRWYDRWPLVRSLVALARRGKTWLRGNRRHAAALEHHHHHH” the entry was “not soluble”; with “MDYLYHPYPSQRMTVFAKNGVVATSQPLAAQAGLDVLKKGGNAIDAAIAAAACLTVVEPTSNGIGGDAFALVWTDGKLYGLNASGYAPKSISIEALKELGYTEMPKYGFAPVTVPGAPAAWAALSKRFGRLPLVETLAPAIAYAENGYPVSPVLGKYWAAAFRTYKEALRGPEFAAWFATFAPGGRAPKIGEVWASPDHAATLRSIAETEAESFYRGELAEKIAAFSKQYGGFLAADDLAEYEPEWVEPISVSYRGYEVWEIPPNGQGIVALMALNIMNGFDVPSVSDVETHHRQIEAMKLAFADGKAYIADRRYMNCSPDELLSESFAAMRRAQIGEEALTPEPGTPPKGGTVYLAAADGEGNMVSFIQSNYMGFGSGLVVPGTGIALHNRGHNFAFDESHPNGLAPRKKPYHTIIPGFLTKGGAPVGPFGVMGGFMQPQGHLQVIMNTVDFDLNPQAALDAPRWQWMEGKTVLVEPHFPRHIAEALARKGHDIRLALDSGLFGRGQIIWRDPDTGVLAAGTEPRTDGAVAAW”, “not soluble”.

As for “MDYTIIDAHAHLWLRQDTVVDGFPIRTLENGRSLFMGEIRQMVPPFMIDGVNSAEVFLSNMDYAQVSAAVITQEFIDGIQNDYLMEVVSRYPDRFFVCGMCEFRKPGYLEQAKELIGKGFKAIKIPAQRLLLKEGRVMLNCPEMMQMFRWMEERGVILSVDLAEGAIQVLEMEEIIQECPRLKIAVGHFGMVTLPDWKEQIKLARHPNVMIESGGITWLFNDEFYPFKGAIKAIREAAELVGMEKLMWGSDYPRTITAITYKMSYDFVVKSPELSEAEKTLFLGGNARKFYGFAELPELPYIKNMSE”, the “soluble on expression in E. coli” value was “not soluble”. To “MEAEVDKLELMFQKAESDLDYIQYRLEYEIKTNHPDSASEKNPVTLLKELSVIKSRYQTLYARFKPVAVEQKESKSRICATVKKTMNMIQKLQKQTDLELSPLTKEEKTAAEQFKFHMPDL” belongs “not soluble”; to “MEAKEKKYGEIEIEKAQLEAWPNPNPERDYMIEITFPEFTCLCPRSGYPDFATIKIRYIPDKYIVELKSLKLWLNKFRNRYISHEAATNEIYQALYDLLKPRFLEVVGDFHPRGNVHTVVRVRSDENYGAAAAAALEHHHHHH”, “soluble”. To “MEAKKSNKIREIVKLQQLLKKWRKQAIASKAANNNNEDNNSSGGGSKSIKFLKRTLSFTDVTAVPKGYLAVSVGLEKKRYTIPTEYLSHQAFYVLLREAEEEFGFQQAGVLRIPCEVSVFESILKIMEEKNEGYLVTPITAKQECKFNAAADDKTSYQHPSDCPKTPSHQPHNSPMCR” belongs “soluble”. With “MEALLKEAFLEALKATDPYRLTAKHLPPWRPDLVLAVGKAAAPMLQAALDRYGEVPYHLTLPKGQKAPGLKAVFARHPVPDEESVRAAEEVLGLLQGLSPRARVLALLSGGGSALWCAPLGISLEEKRALTEALLKSGASIHEMNAVRKHLSQIKGGRALLATRAKVHVLLLSDVPGDDPSVIASGPFHPDPTTYAEALALLDRYGLAFPGARAVLRQGVEGRLPETLKPQDPALRRLAWRLVGTNLHLLRAAQRFLRARGFRAAVLSDRFGGEARALARFHAELIEAIRAHGVPFRKPLFLLSGGEAQVRVVGRGRGGRNLEFLLALYAHLKTPLYALAADSDGLDGNSGAAGALLTPAVWEKGLDPRPFLEENDSLGFFQEAGTLLKTGPTGTNLNDFRLLLVD” the entry was “soluble”; with “MEANKYKIGIIGSRDIILPFSMIGFDIFPAYQEQEAINTLRKLAQSDYGVIYITEDIASMILDTIRHYDSQVVPAIILLPTHKQGLNLGLKRIEDNVEKAVGHNILLEHHHHHH”, “not soluble”. On to “MEAVQSSGRRMVHAIVWRYFEPRLRGSSVSNPGSNLVRFSEFCRGSMGFHICRLCDQASQWLSLDRSTSQWLSLDRSTVTTAFVWTDAFTTGTAGFNWDNKQPDNKDLNQPCAIVLAAHAPIHFQSYQFQPAMMDDAECAADSVASMGRTISGYVCGKPARQ”, for which the “soluble on expression in E. coli” value is recorded as “not soluble”. Consider “MEDFGRQRPYGDGGMQIQPYHGNQGGDFRSYSASYGTRENNIYDVKKEKSIARSKSWGITDPELQRKKRVASYKMYGVEGKVKGSFRNSFRWLKQRYTQVVYGWW”, for which the “soluble on expression in E. coli” value is given as “not soluble”. To “MEDIYYSPRYEDDEYEYRHVILPQAVSRKVPKGRLLSEAEWRRAGVQQSLGWEHYMVHNPEKHILLFRRKRHFTKADEERAKMELLRDMEVFNRAQQQTTATDEKLNAVFYEFVNKAV” belongs “not soluble”; to “MEDKLITLAILTYAKAQILKNVLENEGIEAYIHNVNLIQPVISSGVRLRIKESDLPHALQIIESSAWLSEDIIKGKESSSERNKEKRKVLIPIDFSNYSLKACQFGFSFANAINSEVVLLHAYFSPIYVPTIPYGTDNFNFQIEREESVKSMIETVHNELNKLSDTIKKKVESGEFPNIKYTCILRDGIPEEEILRYAKEYNPQIIIMGTRGRSQKDIDLIGSVTAEVIERSKSFVYAIPEHTPLKTFNDIKKVAFVTNFDQRDLIAFDSLINAFKSFHFAVSFIHLSTDNDAWNEIKLAGIKDYFQKQYSKLELYYNVVKEDNILNNLDNYVKEENIDVICITNYKRNIFARLFNPSIARKMIFHANTPILVIK”, “not soluble”.
